B1: 1.56a (VHH)
VHH: QVQLVESGGGVVRLGGSLRLSCAASGFSFVDYGMSWVRQAPGQGLEWVSGISRNGGSTGYADSVKDRFTISRDNAKNTLYLQMNSLRAEDTALYYCARDPYSSGWSYDSFDIWGQGTMVTVSS
B2: 1.52a (VHH)
VHH: EVQLLESGGGVVRPGGSLRLSCAASGFTFDDYGMSWVRQPPGKGLEWVSGISRNGGSAGYSDSAKDRFTISRDNAKNSLYLQMNSLRADDTAMYYCAREKYSSGWSYDDFDIWGQGTMVTVSS
B3: 1.53a (VHH)
VHH: QVQLVESGGGVVRPGGSLRLSCAASGFTFDDYGMSWVRQSPGKGLEWVSGISRNGGSAGYSDSAKDRFTISRDNAKNSLYLQMNSLRADDTAMYYCAREKYSSGWSYDDFDIWGQGTMVTVSS
B4: 1.54a (VHH)
VHH: QVQLVESGGGVVRPGGSLRLSCAASGFTFDDYGMSWVRQPPGKGLEWVSGISRNGGSAGYSDSAKDRFTISRDNAKNSLYLQMNSLRADDTAMYYCAREKYSSGWSYDDFDIWGQGTMVTVSS
B5: 1.57a (VHH)
VHH: QVQLVESGGGVVRPGGSLRLSCAASGFTFDDYGMSWVRQAPGKGLEWVSGISRNGGSTGYTASVKDRFTISRDNAKNSLYLQMNSLRADDTAMYYCAREKYSSGWSYDDFDIWGQGTMVTVSS
B6: 1.55a (VHH)
VHH: EVQLVESGGGVVRPGGSLRLSCAASGFTFDDYGMSWVRQPPGKGLEWVSGISRNGGSAGYSDSAKDRFTISRDNAKNSLYLQMNSLRADDTAMYYCAREKYSSGWSYDDFDIWGQGTMVTVSS
B7: 1.24b (VHH)
VHH: QVTLKESGGGLVKPGGSLRLSCAASGFTFSDYDMYWIRQAPGKGLEWVSYISRGGSVTYYADSVKGRFTISRDNAKNALYLQMNSLRAEDMAVYFCATEAPLRLGETPHAAFDIWGQGTMVTVSS
B8: 1.28b (VHH)
VHH: QITLKESGGGLVKPGGSLRLSCAASGFTFSDYDMYWIRQAPGKGLEWVSYISRGGSVTYYADSVKGRFTISRDNAKNALYLQMNSLRAEDMAVYFCATEAPLRLGETPHAAFDIWGQGTMVTVSS
B9: 1.12b (VHH)
VHH: EVQLLESGGGVVKPGGSLRLSCAASGFTFSDYYMGWIRQAPGKGLEWISYISSSGSTIYYADSVKGRFTISRDNAKNSLYLQMNSLRAEDTAVYYCAREAPLRLGESPHDAFDIWGQGTMVTVSS
B10: 1.26b (VHH)
VHH: QVTLKESGGGLVKPGGSLRLSCAASGFTFSDNSMSWIRQAPGKGLEWVSYISSSGSTIYYADSVKGRFTISRDNAKNSLYLQMNTLRAEDTAVYYCAKEAPLRLGESPHDAFDIWGQGTMVTVSS
B11: 1.15b (VHH)
VHH: QVQLVESGGGLVKPGGSLRLSCAASGFTFSDNSMSWIRQAPGKGLEWVSYISSSGSTIYYADSVKGRFTISRDNAKNSLYLQMNTLRAEDTAVYYCAKEAPLRLGESPHDAFDIWGQGTMVTVSS
B12: 1.92a (VHH)
VHH: EVQLVESGGGVVRPGGSLRLSCAASGFTFDDYAFSWVRQAPGKGLEWVSGITWNGGSTGYADSVKDRFTISRDNAKNSLYLQMNSLRAEDTALYYCVRDKYSYAWSYDGFDIWGQGTMVTVSS
B13: 1.102a (VHH)
VHH: EVQLVESGGGVVRPGGSLRLSCAASGFTFDDYAMSWVRQAPGKGLEWVSGITWNGGSTGYADSVKDRFTISRDNAKNSLYLQMNSLRAEDTALYYCVRDKYSYAWSYDVFDIWGQGTMVTVSS
B14: 1.96a (VHH)
VHH: EVQLVESGGGVVRPGGSLRLSCAASGFTFDDYAMSWVRQAPGKGLEWVSGITWPGGSTGYADSVKDRFTISRDNAKNSLYLQMNSLRAEDTALYYCVRDKYSYAWSYDGFDIWGQGTMVTVSS
B15: 1.97a (VHH)
VHH: EVQLVESGGGVVRPGGSLRLSCAASGFTFDDYAMSWVRQAPGKGLEWVSGITWIGGSTGYADSVKDRFTISRDNAKNSLYLQMNSLRAEDTALYYCVRDKYSYAWSYDGFDIWGQGTMVTVSS
B16: 1.100a (VHH)
VHH: EVQLVESGGGVVRPGGSLRLSCAASGFTFDDYAMSWVRQAPGKGLEWVSGITWKGGSTGYADSVKDRFTISRDNAKNSLYLQMNSLRAEDTALYYCVRDKYSYAWSYDGFDIWGQGTMVTVSS
B17: 1.98a (VHH)
VHH: EVQLVESGGGVVRPGGSLRLSCAASGFTFDDYAMSWVRQAPGKGLEWVSGITWLGGSTGYADSVKDRFTISRDNAKNSLYLQMNSLRAEDTALYYCVRDKYSYAWSYDGFDIWGQGTMVTVSS
B18: 1.95a (VHH)
VHH: EVQLVESGGGVVRPGGSLRLSCAASGFTFDDYAMSWVRQAPGKGLEWVSGITWSGGSTGYADSVKDRFTISRDNAKNSLYLQMNSLRAEDTALYYCVRDKYSYAWSYDGFDIWGQGTMVTVSS
B19: 1.93a (VHH)
VHH: EVQLVESGGGVVRPGGSLRLSCAASGFTFDDYAVSWVRQAPGKGLEWVSGITWNGGSTGYADSVKDRFTISRDNAKNSLYLQMNSLRAEDTALYYCVRDKYSYAWSYDGFDIWGQGTMVTVSS
B20: 1.99a (VHH)
VHH: EVQLVESGGGVVRPGGSLRLSCAASGFTFDDYAMSWVRQAPGKGLEWVSGITWNGGSTGYADSVKGRFTISRDNAKNSLYLQMNSLRAEDTALYYCVRDKYSYAWSYDGFDIWGQGTMVTVSS
B21: 1.94a (VHH)
VHH: EVQLVESGGGVVRPGGSLRLSCAASGFTFDDYAMSWVRQAPGKGLEWVSGITWTGGSTGYADSVKDRFTISRDNAKNSLYLQMNSLRAEDTALYYCVRDKYSYAWSYDGFDIWGQGTMVTVSS
B22: 1.101a (VHH)
VHH: EVQLVESGGGVVRPGGSLRLSCAASGFTFDDYAMSWVRQAPGKGLEWVSGITWRGGSTGYADSVKDRFTISRDNAKNSLYLQMNSLRAEDTALYYCVRDKYSYAWSYDGFDIWGQGTMVTVSS
B23: 1.25b (VHH)
VHH: QVTLKESGGGLVKPGGSLRLSCAASGFTFSDYYMSWFRQAPGKEREWISFISSSGSTTYYADSVKGRFTISRDNAKNSLYLQMNSLRAEDTAVYYCAREAPLRLGESPHDAFDFWGQGTMVTVSS

Biological target: T1, human PD-1 expressed on cells (CHO TREX human PD1 cell line, full-length human PD-1 sequence) (human, UniProt Q15116 21-288)
T1 construct: Also used for human PD-1 on Jurkat reporter cells, on PathHunter cells and on PHA-stimulated human CD4+ T cells; also called CHO human PD1 cells; CHO human PD-1 cells
T1 sequence (Q15116 21-288): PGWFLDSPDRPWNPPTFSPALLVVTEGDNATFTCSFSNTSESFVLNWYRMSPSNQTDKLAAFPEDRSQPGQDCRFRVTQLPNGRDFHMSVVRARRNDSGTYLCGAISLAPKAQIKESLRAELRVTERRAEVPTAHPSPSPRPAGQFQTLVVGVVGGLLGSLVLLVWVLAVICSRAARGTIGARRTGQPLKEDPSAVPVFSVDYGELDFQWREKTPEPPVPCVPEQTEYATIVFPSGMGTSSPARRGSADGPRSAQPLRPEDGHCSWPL
Test: worded summary of the screens

Binding result, binds:
B1
B2
B3
B4
B5
B6
B7
B8
B9
B10
B11
B12
B13
B14
B15
B16
B17
B18
B19
B20
B21
B22
B23

Reference: patent publication US20220306744A1 (CRESCENDO BIOLOGICS, published 2022)
